# Test results as given in patent US20040259802.
# T1: 19-mer (SEQ ID NO:11) cleavage domain peptide
# T1 chain: PRCGNPDVANYNFFPRKPK
# Target: T1, 19-mer (SEQ ID NO:11) cleavage domain …
protein,measurement,value
Proenzyme pro-MMP-9 (protein) APRQRQSTLVLFPGDLRTNLTDRQLAEEYLYRYGYTRVAEMRGESKSLGPALLLLQKQLSLPETGELDSATLKAMRTPRCGVPDLGRFQTFEGDLKWHHHNITYWIQNYSEDLPRAVIDDAFARAFALWSAVTPLTFTRVYSRDADIVIQFGVAEHGDGYPFDGKDGLLAHAFPPGPGIQGDAHFDDDELWSLGKGVVVPTRFGNADGAACHFPFIFEGRSYSACTTDGRSDGLPWCSTTANYDTDDRFGFCPSERLYTQDGNADGKPCQFPFIFQGQSYSACTTDGRSDGYRWCATTANYDRDKLFGFCPTRADSTVMGGNSAGELCVFPFTFLGKEYSTCTSEGRGDGRLWCATTSNFDSDKKWGFCPDQGYSLFLVAAHEFGHALGLDHSSVPEALMYPMYRFTEGPPLHKDDVNGIRHLYGPRPEPEPRPPTTTTPQPTAPPTVCPTGPPTVHPSERPTAGPTGPPSAGPTGPPTAGPSTATTVPLSPVDDACNVNIFDAIAEIGNQLYLFKDGKYWRFSEGRGSRPQGPFLIADKWPALPRKLDSVFEERLSKKLFFFSGRQVWVYTGASVLGPRRLDKLGLGADVAQVTGALRSGRGKMLLFSGRRLWRFDVKAQMVDPRSASEVDRMFPGVPLDTHDVFQYREKAYFCQDRFYWRVSSRSELNQVDQVGYVTYDILQCPED,conversion of pro-MMP-9 into prodomain and active enzyme by stromilysin (HPLC splicing assay),Titrating the standard splicing reaction with the 19-mer (SEQ ID NO:11) peptide prevents the conversion of pro-MMP-9 into the prodomain and the active enzyme. Splicing can be inhibited in a dose dependent manner with micromolar 19-mer
